Data set [1] addresses cardiac troponin I (cTnI) (UniProt P19429 2-210). In words: electrochemical aptasensor (DPV, CV, EIS); DPV response 10 fg/mL-1.0 ug/mL, LOD 2.03 fg/mL; Rct 514 to 606 ohm with 100 ng/mL cTnI; Aptamer immobilization: 20 mM Tris-HCl, 5 mM MgCl2, 50 mM NaCl, pH 7.4, 4 C; cTnI incubation 1 h (serum samples: 10% serum in 20 mM Tris-HCl, 150 mM NaCl, pH 7.4, 37 C); DPV read in 0.8 M KNO3, CV/EIS in 0.1 M PBS with 5 mM [Fe(CN)6]3-/4-. As to conditions: protein: commercial.

Data set [2] addresses T1, myoglobin (Myo) (UniProt P02144 2-154).
T1 sequence: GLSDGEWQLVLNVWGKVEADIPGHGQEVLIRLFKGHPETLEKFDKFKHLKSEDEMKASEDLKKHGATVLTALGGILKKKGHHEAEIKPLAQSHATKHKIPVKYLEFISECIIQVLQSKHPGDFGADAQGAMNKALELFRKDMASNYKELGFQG
Nature of the data set: electrochemical aptasensor (DPV); 1 ng/mL; negligible current change; Aptamer immobilization: 20 mM Tris-HCl, 5 mM MgCl2, 50 mM NaCl, pH 7.4, 4 C; cTnI incubation 1 h (serum samples: 10% serum in 20 mM Tris-HCl, 150 mM NaCl, pH 7.4, 37 C); DPV read in 0.8 M KNO3, CV/EIS in 0.1 M PBS with 5 mM [Fe(CN)6]3-/4-. As to conditions: protein: commercial.

Data on one molecule can be found in publication PMC11477680, “A Label-Free Electrochemical Aptamer Sensor for Sensitive Detection of Cardiac Troponin I Based on AuNPs/PB/PS/GCE”.

Chain of cardiac troponin I (cTnI) (P19429 2-210): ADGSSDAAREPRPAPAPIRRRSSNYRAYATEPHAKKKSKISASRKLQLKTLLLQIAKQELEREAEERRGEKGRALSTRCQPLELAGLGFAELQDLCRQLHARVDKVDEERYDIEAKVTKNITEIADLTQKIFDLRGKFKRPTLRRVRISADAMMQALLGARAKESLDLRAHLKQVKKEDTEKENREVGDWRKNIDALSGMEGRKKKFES

With CGTGCAGTACGCCAACCTTTCTCATGCGCTGCCCCCCTCTTA (ssDNA, 5'-SH-(C6) thiol linker) [Tro4], the binding result was “binds” in data set [1] and “no binding” in data set [2].
